The Immune Epitope Database (IEDB)
pIC50, pKd: −log10 of the molar value.

How the values were obtained:
HLA-A*01:01 [1] = test: IEDB peptide-MHC binding, purified MHC/direct/fluorescence; filed as Kd, often an IC50 or EC50 that approximates it; ≥ and ≤ were set here for values at or beyond the usual limits of such assays; conditions: source organism: Clostridium botulinum
HLA-A*02:01 = test: as above
HLA-A*02:03 = test: as above
HLA-A*02:06 = test: as above; conditions: source organism: Clostridium botulinum NCTC 2916
HLA-A*02:11 = test: as above
HLA-A*02:12 = test: as above
HLA-A*02:19 = test: as above
HLA-A*03:01 = test: as above
HLA-A*11:01 [2] = test: as above; conditions: source organism: Clostridium botulinum
HLA-A*24:02 = test: as above; conditions: source organism: Clostridium botulinum
HLA-A*31:01 [3] = test: as above; conditions: source organism: Clostridium botulinum
HLA-A*69:01 = test: as above; conditions: source organism: Clostridium botulinum
HLA-B*07:02 [4] = test: as above; conditions: source organism: Clostridium botulinum
HLA-B*08:01 [5] = test: as above; conditions: source organism: Clostridium botulinum NCTC 2916
HLA-B*08:02 = test: as above; conditions: source organism: Clostridium botulinum NCTC 2916
HLA-B*15:01 = test: as above
HLA-B*15:09 = test: as above; conditions: source organism: Clostridium botulinum NCTC 2916
HLA-B*18:01 = test: as above
HLA-B*27:05 [6] = test: as above; conditions: source organism: Clostridium botulinum
HLA-B*40:01 [7] = test: as above; conditions: source organism: Clostridium botulinum
HLA-B*44:02 [8] = test: as above; conditions: source organism: Clostridium botulinum
HLA-B*46:01 = test: as above
HLA-B*58:01 [9] = test: as above; conditions: source organism: Clostridium botulinum
HLA-A*31:01 [10] = test: IEDB peptide-MHC binding, purified MHC/competitive/fluorescence; ≥ and ≤ were set here for values at or beyond the usual limits of such assays; conditions: source organism: Homo sapiens
HLA-A*02:16 = test: IEDB peptide-MHC binding, purified MHC/direct/fluorescence; filed as Kd, often an IC50 or EC50 that approximates it; ≥ and ≤ were set here for values at or beyond the usual limits of such assays; conditions: source organism: Bacillus anthracis str. A0488
HLA-A*23:01 = test: as above; conditions: source organism: Bacillus anthracis str. A0488
HLA-A*26:01 = test: as above; conditions: source organism: Bacillus anthracis str. A0488
HLA-A*68:02 = test: as above; conditions: source organism: Bacillus anthracis str. A0488
HLA-B*15:17 = test: as above; conditions: source organism: Bacillus anthracis str. A0488
HLA-B*27:03 = test: as above; conditions: source organism: Bacillus anthracis str. A0488
HLA-B*39:01 = test: as above; conditions: source organism: Bacillus anthracis str. A0488
HLA-B*57:01 = test: as above; conditions: source organism: Bacillus anthracis str. A0488
HLA-A*01:01 [11] = test: IEDB peptide-MHC binding, purified MHC/competitive/fluorescence; filed as Kd, often an IC50 or EC50 that approximates it; ≥ and ≤ were set here for values at or beyond the usual limits of such assays; conditions: source organism: Bacillus anthracis str. A0488
HLA-A*11:01 [12] = test: as above; conditions: source organism: Bacillus anthracis str. A0488
HLA-A*30:01 = test: as above; conditions: source organism: Bacillus anthracis str. A0488
HLA-A*30:02 = test: as above; conditions: source organism: Bacillus anthracis str. A0488
HLA-A*66:01 = test: as above; conditions: source organism: Bacillus anthracis str. A0488
HLA-B*07:02 [13] = test: as above; conditions: source organism: Bacillus anthracis str. A0488
HLA-B*08:01 [14] = test: as above; conditions: source organism: Bacillus anthracis str. A0488
HLA-B*14:02 = test: as above; conditions: source organism: Bacillus anthracis str. A0488
HLA-B*27:05 [15] = test: as above; conditions: source organism: Bacillus anthracis str. A0488
HLA-B*40:01 [16] = test: as above; conditions: source organism: Bacillus anthracis str. A0488
HLA-B*44:02 [17] = test: as above; conditions: source organism: Bacillus anthracis str. A0488
HLA-B*51:01 = test: as above; conditions: source organism: Bacillus anthracis str. A0488
HLA-B*53:01 = test: as above; conditions: source organism: Bacillus anthracis str. A0488
HLA-B*58:01 [18] = test: as above; conditions: source organism: Bacillus anthracis str. A0488
[19] = source organism: Clostridium botulinum
[20] = source organism: Clostridium botulinum NCTC 2916
[21] = source organism: Bacillus anthracis str. A0488

RVYINVVVK
6.64: pKd (HLA-A*31:01 [3])
6.22: pKd (HLA-A*02:03; [20]) | pKd (HLA-A*02:11; [20])
6.16: pKd (HLA-A*02:12; [20])
≤ 4.70: pKd (HLA-A*01:01 [1]) | pKd (HLA-A*24:02) | pKd (HLA-A*69:01) | pKd (HLA-B*07:02 [4]) | pKd (HLA-B*08:01 [5]) | pKd (HLA-B*08:02) | pKd (HLA-B*15:01; [19]) | pKd (HLA-B*15:09) | pKd (HLA-B*18:01; [19]) | pKd (HLA-B*27:05 [6]) | pKd (HLA-B*40:01 [7]) | pKd (HLA-B*44:02 [8]) | pKd (HLA-B*46:01; [19]) | pKd (HLA-B*58:01 [9])
6.01: pKd (HLA-A*02:01; [19])
6.32: pKd (HLA-A*11:01 [2])
6.62: pKd (HLA-A*03:01; [19])
6.58: pKd (HLA-A*02:06)
5.67: pKd (HLA-A*02:19; [20])

VTMGTGTFGR
6.45: pIC50 (HLA-A*31:01 [10])

WDAYIPHYV
≤ 5.30: pKd (HLA-A*01:01 [11]) | pKd (HLA-A*11:01 [12]) | pKd (HLA-A*30:01) | pKd (HLA-A*30:02) | pKd (HLA-A*66:01) | pKd (HLA-B*07:02 [13]) | pKd (HLA-B*08:01 [14]) | pKd (HLA-B*14:02) | pKd (HLA-B*27:05 [15]) | pKd (HLA-B*40:01 [16]) | pKd (HLA-B*44:02 [17]) | pKd (HLA-B*53:01) | pKd (HLA-B*58:01 [18])
≤ 4.70: pKd (HLA-A*02:01; [21]) | pKd (HLA-A*02:03; [21]) | pKd (HLA-A*02:11; [21]) | pKd (HLA-A*02:12; [21]) | pKd (HLA-A*02:16) | pKd (HLA-A*02:19; [21]) | pKd (HLA-A*03:01; [21]) | pKd (HLA-A*23:01) | pKd (HLA-A*26:01) | pKd (HLA-B*15:01; [21]) | pKd (HLA-B*15:17) | pKd (HLA-B*18:01; [21]) | pKd (HLA-B*27:03) | pKd (HLA-B*39:01) | pKd (HLA-B*46:01; [21]) | pKd (HLA-B*57:01)
6.27: pKd (HLA-B*51:01)
≥ 9.00: pKd (HLA-A*68:02)
